Assay results taken from patent US20030152946A1, “Bh4-fused polypeptides” (priority 1999, published 2003).

Experiments:
HeLa cells = test: VP16-induced apoptosis in HeLa cells in the presence of TAT-BH4 polypeptide; type: cell-based, human; conditions: VP16 for 24 hours, polypeptide in the culture medium
Experimental: FIG. 17 is a diagram showing the results for evaluating the effect of TAT-BH4 polypeptide on VP16-induced apoptosis. Cells were treated with VP16 at the indicated concentrations for 24 hours in the presence of 100 μg/ml TAT-BH4 polypeptide (□) or TAT polypeptide (∘) or absence of polypeptide (●) and then stained with Hoechst 33342. Apoptotic cell death was determined by the morphology of nuclei using a fluorescence microscope. Data shown are from one of three independent experiments.
FIG. 18 is a diagram showing the results for evaluating the dose-dependent inhibition of VP16-induced apoptosis by TAT-BH4 polypeptide. […] Apoptotic cell death was determined in the same manner as in FIG. 17.
The inhibition and promotion of apoptosis can be evaluated by, for instance, the following method, without being limited thereto.
Therefore, in order to facilitate the transport of the BH4 polypeptide into cells, the above-mentioned TAT-BH4 polypeptide of 30 amino acid residues was synthesized, the polypeptide comprising N-terminal eosin-conjugated cystein and the PTD of HIV TAT protein fused to the Bcl-xL BH4 polypeptide. HeLa cells were treated with 200 μM VP16 in the presence of the TAT-BH4 polypeptide, and then observed by an optical phase-contrast microscope and a fluorescence microscope, respectively. […]

Rat liver VDAC = target: T1, Rat liver VDAC (Rattus norvegicus, UniProt Q9Z2L0); test: VDAC activity: sucrose uptake into VDAC liposomes (liposomal swelling, light scatter at 520 nm); type: biochemical; conditions: for Inhibition of VDAC activity (VDAC-mediated sucrose uptake): 20 μg/ml protein or polypeptide
T1 construct: Rat liver VDAC was purified in accordance with a report made by Shimizu et al; from tissue; host or cells: rat liver (mitochondria)
Experimental: Purified VDAC was reconstituted in small unilamellar vesicles by the ultrasonic freeze-thaw procedure described in a report made by Shimizu et al. [Nature, 399, 483-487 (1999)]. Sucrose uptake experiment was performed by assessing liposomal swelling.
Liposomes produced at pH 5.2 were incubated at 25° C. in 1 ml of liposome buffer together with rBcl-xL, rΔ21, rBax or a polypeptide for 3 minutes. Here, acidic pH was a required condition for efficient uptake of rBcl-xL and rBax into the liposomes. Thereafter, sucrose was added up to a concentration of 50 mM to the mixture, and the liposomal swelling was assessed by the decrease in light scatter at a wavelength of 520 nm using a spectrophotometer (F-4500, manufactured by Hitachi, Ltd.). Sucrose uptake was also estimated from ^14C-sucrose uptake as described in the report made by Shimizu et al. [Nature, 399, 483-487(1999)].
Next, the functional role of the BH4 domain in the regulation of VDAC activity was examined. VDAC activity was measured by assessing sucrose uptake into VDAC-containing liposomes, using the two procedures: a method with radiolabeled sucrose described in a report made by Shimizu et al. [Nature, 399, 483-487 (1999)], and a method for measuring a sucrose uptake-dependent liposomal swelling that was monitored by decrease in light scatter. Since sucrose-uptake-dependent liposomal swelling was confirmed by microscopic observation or flow cytometric analysis, it is thought that the liposomal swelling is based on the rapid influx of sucrose and water through large VDAC pores which overwhelmed osmosis-dependent efflux of water.

Rat liver mitochondria [1] = test: Ca2+-induced ΔΨ loss in isolated mitochondria (Rhodamine 123 uptake); type: biochemical; conditions: for Inhibition of Ca2+-induced mitochondrial ΔΨ loss: mitochondria 1 mg/ml, 40 μM Ca2+, 20 μg/ml protein or polypeptide
Experimental: (§1) Rat liver mitochondria (1 mg protein/ml) isolated in accordance with a report made by Shimizu et al. [Oncogene, 13, 21-29(1996)] were incubated at 25° C. in a medium containing 0.3 M mannitol, 10 mM HEPES/K^+ (pH 7.4), 0.1% fatty acid-free BSA, 1 mM potassium phosphate, 40 μM CaCl2 and 4.2 mM succinate for energization in the presence or absence of recombinant proteins.
ΔΨ was assessed by measuring the uptake of Rhodamine 123 (Rh123) as previously described by Shimizu et al. [Oncogene, 13, 21-29(1996)].
Isolated mitochondria (1 mg/ml) were incubated with 20 μg/ml Bcl-xL BH4 polypeptide in the presence of 40 μM Ca^2+, and thereafter Rhodamine 123 intensity was continuously monitored. The results are shown in the left panel of FIG. 14. In addition, isolated mitochondria (1 mg/ml) were incubated with 20 μg/ml BH4 polypeptide of Bcl-xL and any of various mutant polypeptides in the presence of 40 μM Ca for 15 minutes, and thereafter ΔΨ was measured by Rhodamine 123 intensity. The results are shown in the right panel of FIG. 14.

Bax = target: T2, Bax (Homo sapiens, UniProt Q07812); test: Binding of BH4 polypeptide to Bax
T2 construct: made in house

Rat liver mitochondria [2] = test: Ca2+-induced cytochrome c release from isolated mitochondria (Western blot); type: biochemical; conditions: mitochondria 1 mg/ml, 40 μM Ca2+, 20 μg/ml protein
Experimental: as §1
The cytochrome c release was evaluated by centrifuging the above-mentioned mitochondria, re-suspending the resulting pellets in an RIPA buffer to give mitochondria suspension, and subjecting the mitochondria suspension and supernatant to Western blot analysis using anti-cytochrome c antibodies.

VDAC = target: T3, VDAC (Rattus norvegicus, UniProt Q9Z2L0); test: Co-immunoprecipitation with VDAC and Western blot; type: binding; conditions: 20 μg/ml protein or polypeptide
T3 construct: from tissue; host or cells: rat liver (purified VDAC, or isolated mitochondria)
Experimental: Purified VDAC (20 μg/ml) was incubated with recombinant BCl-xL (rBcl-xL) and recombinant Δ21 (rΔ21), and the resulting mixture was immunoprecipitated with anti-Bcl-xL (L19) antibody and normal rabbit IgG. In order to detect interactions between polypeptide and VDAC, isolated mitochondria (1 mg) were incubated with 20 μg of Bcl-xL N-terminal polypeptide or Bcl-xL C-terminal polypeptide for 5 minutes. Thereafter, the resulting mitochondria were pelleted, washed, and suspended in a lysis buffer (10 mM HEPES, pH 7.4, 142.5 mM KCl, 5 mM MgCl2, 1 mM EGTA and 0.5% NP40) in the presence of proteinase inhibitors (0.1 mM p-APMSF, 10 μg/ml aprotinin, 1 μg/ml chymostatin, 1 μg/ml leupeptin, 1 μg/ml antipain, 1 μg/ml pepstatin), followed by ultrasonic disruption. Immunoprecipitation was carried out with anti-Bcl-x polyclonal antibodies corresponding to the polypeptides used. Co-immunoprecipitation of VDAC was detected by Western blotting using an anti-VDAC antibody.

[3] = target: rat liver VDAC (voltage-dependent anion channel) (rat, UniProt Q9Z2L0 2-283); test: cell-based or functional assay
Sequence of rat liver VDAC (voltage-dependent anion channel) (Q9Z2L0 2-283): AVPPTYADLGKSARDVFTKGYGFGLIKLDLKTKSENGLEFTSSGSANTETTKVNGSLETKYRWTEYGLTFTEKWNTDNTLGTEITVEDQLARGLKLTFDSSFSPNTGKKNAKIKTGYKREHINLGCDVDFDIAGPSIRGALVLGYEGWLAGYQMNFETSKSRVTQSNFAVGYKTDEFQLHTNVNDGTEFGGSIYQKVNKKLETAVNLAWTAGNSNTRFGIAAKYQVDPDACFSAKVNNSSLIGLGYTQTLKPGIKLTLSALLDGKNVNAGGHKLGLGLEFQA

T1 sequence (Q9Z2L0 whole entry): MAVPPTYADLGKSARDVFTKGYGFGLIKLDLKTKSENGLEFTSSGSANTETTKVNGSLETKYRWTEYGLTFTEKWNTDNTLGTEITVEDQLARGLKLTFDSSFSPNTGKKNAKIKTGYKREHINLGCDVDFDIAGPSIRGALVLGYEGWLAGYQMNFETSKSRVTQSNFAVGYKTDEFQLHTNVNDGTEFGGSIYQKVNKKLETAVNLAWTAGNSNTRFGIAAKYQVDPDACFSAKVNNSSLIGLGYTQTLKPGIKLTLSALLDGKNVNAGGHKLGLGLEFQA
T3 sequence (Q9Z2L0 whole entry): as above
T2 sequence (Q07812 whole entry): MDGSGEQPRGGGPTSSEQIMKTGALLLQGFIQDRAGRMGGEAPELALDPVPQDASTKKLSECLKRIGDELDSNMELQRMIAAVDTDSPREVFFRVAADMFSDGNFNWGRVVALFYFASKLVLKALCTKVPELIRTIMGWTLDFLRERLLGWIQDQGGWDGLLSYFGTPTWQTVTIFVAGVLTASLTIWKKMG

SNRELVVDFLSYKLSQKGYS (listed as Homo sapiens) [BH4 polypeptide, amino acid nos: 4 to 23 of human Bcl-xL]
Inhibition of VP16-induced apoptosis (HeLa cells): no effect | Closure of VDAC (Rat liver VDAC; 20 μg/ml BH4 polypeptide): complete closure | Inhibition of rBax-induced enhancement of VDAC activity (Rat liver VDAC; VDAC liposomes, 5 μg/ml rBax, 50 mM sucrose): inhibited the rBax-induced enhancement of VDAC activity in a dose-dependent manner | Inhibition of VDAC activity (VDAC-mediated sucrose uptake) (Rat liver VDAC; VDAC liposomes, 50 mM sucrose): inhibited the VDAC activity in a concentration-dependent manner | Inhibition of VDAC activity (VDAC-mediated sucrose uptake) (Rat liver VDAC; VDAC liposomes, 50 mM sucrose, listed as BH4 polypeptide of BCl-xL): significantly inhibits | Molar concentration needed to inhibit ΔΨ loss and VDAC activity, relative to recombinant Bcl-xL (Rat liver mitochondria [1]; applies to Ca2+-induced ΔΨ loss and VDAC activity): about 25 fold | Inhibition of Ca2+-induced mitochondrial ΔΨ loss (Rat liver mitochondria [1]): significantly inhibits | Binding to Bax (Bax): did not bind

rBcl-xL: recombinant human Bcl-xL expressed as GST fusion in Escherichia coli, GST cleaved with thrombin
Inhibition of VDAC activity (VDAC-mediated sucrose uptake) (Rat liver VDAC; VDAC liposomes, 50 mM sucrose): inhibited | Effect on VDAC-free liposomes (Rat liver VDAC; VDAC-free liposomes): did not show any significant effect | Inhibition of Ca2+-induced mitochondrial ΔΨ loss (Rat liver mitochondria [1]): inhibited | Inhibition of Ca2+-induced cytochrome c release (Rat liver mitochondria [2]): inhibited | Interaction with VDAC (co-immunoprecipitation) (VDAC): interacted with VDAC to a similar level

rΔ21: recombinant human Bcl-xL lacking the N-terminus 21 amino acids residues (BH4 deletion mutant)
Inhibition of VDAC activity (VDAC-mediated sucrose uptake) (Rat liver VDAC; VDAC liposomes, 50 mM sucrose): did not affect | Inhibition of Ca2+-induced mitochondrial ΔΨ loss (Rat liver mitochondria [1]): did not virtually show inhibitory activity | Inhibition of Ca2+-induced cytochrome c release (Rat liver mitochondria [2]): did not virtually show inhibitory activity

LV89GG: L8V9 mutant of human Bcl-xL BH4 polypeptide (FIG. 13) (SNREGGVDFLSYKLSQKGYS) [reference compound]
Inhibition of VDAC activity (VDAC-mediated sucrose uptake) (Rat liver VDAC; VDAC liposomes, 50 mM sucrose): did not inhibit

eosin-C-RKKRRQRRR [TAT-only polypeptide, reference compound]
Inhibition of VP16-induced apoptosis (HeLa cells): did not significantly inhibit

ΔFL: F12L13 mutant of human Bcl-xL BH4 polypeptide (FIG. 13) (SNRELVVDSYKLSQKGYS) [reference compound]
Inhibition of VDAC activity (VDAC-mediated sucrose uptake) (Rat liver VDAC; VDAC liposomes, 50 mM sucrose): did not inhibit

LV89VF: L8V9 mutant of human Bcl-xL BH4 polypeptide (FIG. 13) (SNREVFVDFLSYKLSQKGYS) [reference compound]
Inhibition of VDAC activity (VDAC-mediated sucrose uptake) (Rat liver VDAC; VDAC liposomes, 50 mM sucrose): did not inhibit

FL1213GG: F12L13 mutant of human Bcl-xL BH4 polypeptide (FIG. 13) (SNRELVVDGGSYKLSQKGYS) [reference compound]
Inhibition of VDAC activity (VDAC-mediated sucrose uptake) (Rat liver VDAC; VDAC liposomes, 50 mM sucrose): did not inhibit

VAQDTEEVFRSYVFYRHQQEQEAE [polypeptide derived from Bak, reference compound]
Inhibition of VDAC activity (VDAC-mediated sucrose uptake) (Rat liver VDAC; VDAC liposomes, 50 mM sucrose): inactive

L17W: Bcl-xL BH4 polypeptide with one amino acid substitution at L17 (SNRELVVDFLSYKWSQKGYS) [Polypeptide L17W, reference compound]
VDAC inhibitory activity as compared to VDAC inhibition of the normal BH4 polypeptide (fraction in words) (Rat liver VDAC; 20 μg/ml polypeptide, 50 mM sucrose): about one-half

ΔLV: L8V9 mutant of human Bcl-xL BH4 polypeptide (FIG. 13) (SNREVDFLSYKLSQKGYS) [reference compound]
Inhibition of VDAC activity (VDAC-mediated sucrose uptake) (Rat liver VDAC; VDAC liposomes, 50 mM sucrose): did not inhibit

TGYDNREIVMKYIHYKLSQRGYEW (listed as Homo sapiens) [BH4 polypeptide derived from Bcl-2, amino acid nos: 7 to 30 of human Bcl-2]
Inhibition of VDAC activity (VDAC-mediated sucrose uptake) (Rat liver VDAC; VDAC liposomes, 50 mM sucrose): inhibited VDAC activity

N-terminal fragment (amino acid nos: 2 to 9) of Bcl-xL: N-terminal (amino acid nos: 2 to 19) polypeptide of Bcl-xL purchased from Santa Cruz Biotechnology (SQSNRELVVDFLSYKLSQ) [reference compound]
Interaction with VDAC (co-immunoprecipitation) (VDAC): detected, although to a lesser extent

B1: Human Bcl-xL BH4 polypeptide (amino acid nos: 4 to 23 of human Bcl-xL) (peptide)
peptide: SNRELVVDFLSYKLSQKGYS
molar concentration needed to inhibit Ca2+-induced membrane potential loss and VDAC activity, relative to recombinant Bcl-xL [3]: ~25 fold
